Values quoted from earlier work in paper PMC8667759.

Columns and labels:
Piezo1 = Piezo1 (UniProt E2JF22)
Cav3 = Cav3 (UniProt O43497)
Sequence of UniProt O43497 (O43497 whole entry): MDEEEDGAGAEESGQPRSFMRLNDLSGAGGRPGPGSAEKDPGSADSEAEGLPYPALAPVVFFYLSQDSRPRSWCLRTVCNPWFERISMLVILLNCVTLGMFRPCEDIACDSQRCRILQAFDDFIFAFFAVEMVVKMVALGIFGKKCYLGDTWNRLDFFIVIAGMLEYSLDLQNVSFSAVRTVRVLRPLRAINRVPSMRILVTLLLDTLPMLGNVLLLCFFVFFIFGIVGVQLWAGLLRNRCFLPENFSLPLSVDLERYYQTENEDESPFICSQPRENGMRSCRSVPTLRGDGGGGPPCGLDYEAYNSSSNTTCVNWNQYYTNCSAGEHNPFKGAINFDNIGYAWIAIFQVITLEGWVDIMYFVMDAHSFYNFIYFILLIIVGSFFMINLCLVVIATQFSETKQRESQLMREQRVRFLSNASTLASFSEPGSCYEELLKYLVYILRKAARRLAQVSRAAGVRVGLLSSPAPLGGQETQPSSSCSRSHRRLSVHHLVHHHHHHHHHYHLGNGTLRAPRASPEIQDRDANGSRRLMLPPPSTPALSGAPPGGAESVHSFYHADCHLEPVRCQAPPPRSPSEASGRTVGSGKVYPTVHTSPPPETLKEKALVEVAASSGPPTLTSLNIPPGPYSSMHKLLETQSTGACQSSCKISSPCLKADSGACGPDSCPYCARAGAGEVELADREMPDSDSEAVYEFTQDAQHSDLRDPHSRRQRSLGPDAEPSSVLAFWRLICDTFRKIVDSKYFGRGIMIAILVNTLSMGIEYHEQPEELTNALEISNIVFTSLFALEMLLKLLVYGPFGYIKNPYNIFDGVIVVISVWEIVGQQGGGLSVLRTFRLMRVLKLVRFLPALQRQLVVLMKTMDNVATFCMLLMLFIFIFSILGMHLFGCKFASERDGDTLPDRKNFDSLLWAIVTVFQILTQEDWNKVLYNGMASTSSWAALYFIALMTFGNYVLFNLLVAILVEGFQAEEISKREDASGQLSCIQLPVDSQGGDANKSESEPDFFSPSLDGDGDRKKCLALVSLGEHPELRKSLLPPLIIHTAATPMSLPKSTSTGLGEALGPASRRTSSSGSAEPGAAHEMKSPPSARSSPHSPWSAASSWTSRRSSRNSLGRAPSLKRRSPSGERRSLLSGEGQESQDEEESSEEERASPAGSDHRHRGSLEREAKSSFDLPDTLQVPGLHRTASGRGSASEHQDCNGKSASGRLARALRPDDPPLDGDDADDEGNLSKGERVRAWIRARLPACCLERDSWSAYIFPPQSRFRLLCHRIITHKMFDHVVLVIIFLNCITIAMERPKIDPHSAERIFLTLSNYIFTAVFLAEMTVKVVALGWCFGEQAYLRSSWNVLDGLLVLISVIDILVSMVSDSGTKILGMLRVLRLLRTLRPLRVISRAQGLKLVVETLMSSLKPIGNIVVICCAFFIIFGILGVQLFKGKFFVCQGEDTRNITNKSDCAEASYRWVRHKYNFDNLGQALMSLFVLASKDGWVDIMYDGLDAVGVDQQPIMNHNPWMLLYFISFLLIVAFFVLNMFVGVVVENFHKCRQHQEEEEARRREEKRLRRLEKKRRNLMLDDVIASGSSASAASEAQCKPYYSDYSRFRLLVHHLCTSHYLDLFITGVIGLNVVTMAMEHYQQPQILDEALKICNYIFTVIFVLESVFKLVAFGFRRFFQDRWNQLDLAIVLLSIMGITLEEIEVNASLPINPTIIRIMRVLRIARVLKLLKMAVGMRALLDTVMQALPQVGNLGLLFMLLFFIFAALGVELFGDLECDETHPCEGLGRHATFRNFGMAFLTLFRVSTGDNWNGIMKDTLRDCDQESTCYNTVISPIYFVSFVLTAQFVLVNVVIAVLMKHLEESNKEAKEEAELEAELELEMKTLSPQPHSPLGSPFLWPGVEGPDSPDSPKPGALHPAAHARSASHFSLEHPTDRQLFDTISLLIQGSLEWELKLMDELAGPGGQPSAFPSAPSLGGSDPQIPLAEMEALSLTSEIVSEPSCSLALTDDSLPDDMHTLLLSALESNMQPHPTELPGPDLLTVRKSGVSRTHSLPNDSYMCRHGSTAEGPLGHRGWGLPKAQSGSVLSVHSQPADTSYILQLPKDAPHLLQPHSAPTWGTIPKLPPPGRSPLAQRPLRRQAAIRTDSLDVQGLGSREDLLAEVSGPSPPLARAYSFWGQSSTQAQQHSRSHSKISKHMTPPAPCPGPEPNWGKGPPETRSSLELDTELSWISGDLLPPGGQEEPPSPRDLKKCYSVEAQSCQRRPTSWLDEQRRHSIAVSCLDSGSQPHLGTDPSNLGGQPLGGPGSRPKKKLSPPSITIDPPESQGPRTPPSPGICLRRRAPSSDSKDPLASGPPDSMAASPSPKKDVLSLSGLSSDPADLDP

Sequence of UniProt E2JF22 (E2JF22 whole entry): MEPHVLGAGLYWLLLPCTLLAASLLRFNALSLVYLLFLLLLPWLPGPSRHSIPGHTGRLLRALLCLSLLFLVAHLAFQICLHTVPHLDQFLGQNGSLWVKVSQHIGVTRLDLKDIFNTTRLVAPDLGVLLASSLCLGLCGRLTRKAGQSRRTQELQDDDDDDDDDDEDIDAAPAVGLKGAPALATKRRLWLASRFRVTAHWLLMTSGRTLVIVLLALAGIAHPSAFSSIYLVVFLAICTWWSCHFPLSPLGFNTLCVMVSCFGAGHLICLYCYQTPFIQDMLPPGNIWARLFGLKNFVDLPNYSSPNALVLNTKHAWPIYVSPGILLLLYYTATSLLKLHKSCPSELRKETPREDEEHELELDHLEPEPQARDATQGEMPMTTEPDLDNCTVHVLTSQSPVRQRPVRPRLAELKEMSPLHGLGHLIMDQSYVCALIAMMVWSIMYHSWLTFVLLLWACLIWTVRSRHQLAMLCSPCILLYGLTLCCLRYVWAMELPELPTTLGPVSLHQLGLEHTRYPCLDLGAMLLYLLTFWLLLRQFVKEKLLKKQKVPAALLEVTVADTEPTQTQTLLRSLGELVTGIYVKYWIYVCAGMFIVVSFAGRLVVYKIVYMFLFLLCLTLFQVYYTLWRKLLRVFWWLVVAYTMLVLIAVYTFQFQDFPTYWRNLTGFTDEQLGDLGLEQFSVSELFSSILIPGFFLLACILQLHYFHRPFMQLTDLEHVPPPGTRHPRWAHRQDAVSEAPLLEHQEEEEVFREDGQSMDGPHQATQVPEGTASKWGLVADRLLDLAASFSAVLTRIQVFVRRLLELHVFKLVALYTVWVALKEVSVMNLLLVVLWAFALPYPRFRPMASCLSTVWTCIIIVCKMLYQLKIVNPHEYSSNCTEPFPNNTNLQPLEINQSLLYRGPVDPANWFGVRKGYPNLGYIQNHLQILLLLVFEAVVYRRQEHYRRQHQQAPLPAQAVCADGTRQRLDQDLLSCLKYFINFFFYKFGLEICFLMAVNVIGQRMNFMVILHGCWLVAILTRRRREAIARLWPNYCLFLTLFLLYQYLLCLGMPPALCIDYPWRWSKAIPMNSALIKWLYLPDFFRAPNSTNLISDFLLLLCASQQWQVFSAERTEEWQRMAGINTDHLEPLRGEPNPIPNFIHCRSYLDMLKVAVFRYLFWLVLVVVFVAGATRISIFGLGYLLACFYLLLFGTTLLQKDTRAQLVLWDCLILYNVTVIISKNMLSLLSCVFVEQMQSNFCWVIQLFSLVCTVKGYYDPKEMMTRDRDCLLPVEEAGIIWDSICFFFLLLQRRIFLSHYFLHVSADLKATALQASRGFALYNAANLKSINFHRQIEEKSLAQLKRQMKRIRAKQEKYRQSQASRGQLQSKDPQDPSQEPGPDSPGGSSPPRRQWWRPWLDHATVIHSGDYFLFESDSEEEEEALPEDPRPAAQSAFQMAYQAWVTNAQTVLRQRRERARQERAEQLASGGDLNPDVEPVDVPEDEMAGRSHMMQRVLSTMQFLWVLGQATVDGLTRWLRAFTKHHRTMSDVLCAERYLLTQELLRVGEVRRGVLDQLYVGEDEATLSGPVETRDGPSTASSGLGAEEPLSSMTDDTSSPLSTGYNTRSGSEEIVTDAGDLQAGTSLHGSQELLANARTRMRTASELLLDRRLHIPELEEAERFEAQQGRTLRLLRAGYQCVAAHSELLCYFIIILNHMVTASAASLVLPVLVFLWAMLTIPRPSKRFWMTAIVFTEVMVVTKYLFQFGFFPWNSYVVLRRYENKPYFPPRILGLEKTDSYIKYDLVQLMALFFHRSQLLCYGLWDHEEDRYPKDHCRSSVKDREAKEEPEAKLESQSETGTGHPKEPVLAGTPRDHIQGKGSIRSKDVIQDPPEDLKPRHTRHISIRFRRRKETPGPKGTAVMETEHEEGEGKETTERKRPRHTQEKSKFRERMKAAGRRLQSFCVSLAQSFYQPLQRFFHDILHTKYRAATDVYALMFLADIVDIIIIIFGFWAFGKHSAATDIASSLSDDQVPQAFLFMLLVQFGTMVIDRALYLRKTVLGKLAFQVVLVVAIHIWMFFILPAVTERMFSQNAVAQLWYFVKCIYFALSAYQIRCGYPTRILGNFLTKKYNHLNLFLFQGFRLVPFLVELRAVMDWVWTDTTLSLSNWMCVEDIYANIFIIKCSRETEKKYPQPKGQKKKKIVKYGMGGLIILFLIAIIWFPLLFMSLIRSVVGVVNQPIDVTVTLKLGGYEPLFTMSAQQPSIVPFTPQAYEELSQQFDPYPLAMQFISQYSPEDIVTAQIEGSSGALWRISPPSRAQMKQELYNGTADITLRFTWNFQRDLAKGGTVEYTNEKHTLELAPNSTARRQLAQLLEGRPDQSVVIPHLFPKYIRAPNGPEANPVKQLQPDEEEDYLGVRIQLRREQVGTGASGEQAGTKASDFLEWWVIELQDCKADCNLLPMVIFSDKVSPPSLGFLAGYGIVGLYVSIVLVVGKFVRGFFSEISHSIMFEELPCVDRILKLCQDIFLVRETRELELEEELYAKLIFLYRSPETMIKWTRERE

Substance | Kd (Piezo1) | Kd (Cav3)
GsMTx4 (from UniProt Q7YT39) | 155 nM | –
Kurtoxin (from UniProt P58910) | – | 15 nM
